doi:10.1101/2024.05.25.595884 (bioRxiv, 2024)

B1: Trastuzumab scFab HCDR3 variant clone H3_72 (Fab, V domains shown)
VH: EVQLVESGGGLVQPGGSLRLSCAASGFNIKDTYIHWVRQAPGKGLEWVARIYPTNGYTRYADSVKGRFTISADTSKNTAYLQMNSLRAEDTAVYYCSRWRGKGFTAMDYWGQGTLVTVSS
VL: not shown
B2: Trastuzumab scFab HCDR3 variant clone H3_29 (Fab, V domains shown)
VH: EVQLVESGGGLVQPGGSLRLSCAASGFNIKDTYIHWVRQAPGKGLEWVARIYPTNGYTRYADSVKGRFTISADTSKNTAYLQMNSLRAEDTAVYYCSRWRSIGFYAMDYWGQGTLVTVSS
VL: not shown
B3: Trastuzumab scFab HCDR2/HCDR3 cross-combination clone H2/3_03 (Fab, V domains shown)
VH: EVQLVESGGGLVQPGGSLRLSCAASGFNIKDTYIHWVRQAPGKGLEWVARIKPANGYTRYADSVKGRFTISADTSKNTAYLQMNSLRAEDTAVYYCSRWRSIGFYAMDYWGQGTLVTVSS
VL: not shown
B4: Trastuzumab scFab HCDR2 variant IRPVRG (Fab, V domains shown)
VH: EVQLVESGGGLVQPGGSLRLSCAASGFNIKDTYIHWVRQAPGKGLEWVARIRPVRGYTRYADSVKGRFTISADTSKNTAYLQMNSLRAEDTAVYYCSRWGGDGFYAMDYWGQGTLVTVSS
VL: not shown
B5: Trastuzumab scFab HCDR2/HCDR3 cross-combination clone H2/3_07 (Fab, V domains shown)
VH: EVQLVESGGGLVQPGGSLRLSCAASGFNIKDTYIHWVRQAPGKGLEWVARIRPVRGYTRYADSVKGRFTISADTSKNTAYLQMNSLRAEDTAVYYCSRWRSIGFYAMDYWGQGTLVTVSS
VL: not shown
B6: Trastuzumab scFab HCDR3 variant clone H3_85 (Fab, V domains shown)
VH: EVQLVESGGGLVQPGGSLRLSCAASGFNIKDTYIHWVRQAPGKGLEWVARIYPTNGYTRYADSVKGRFTISADTSKNTAYLQMNSLRAEDTAVYYCSRWGRHGFNAMDYWGQGTLVTVSS
VL: not shown
B7: Trastuzumab scFab HCDR3 variant clone H3_77 (Fab, V domains shown)
VH: EVQLVESGGGLVQPGGSLRLSCAASGFNIKDTYIHWVRQAPGKGLEWVARIYPTNGYTRYADSVKGRFTISADTSKNTAYLQMNSLRAEDTAVYYCSRWRRKGFYAMDYWGQGTLVTVSS
VL: not shown

The binders below were run against full-length human HER2 with enhanced green fluorescent protein (eGFP) at the C-terminal end (Homo sapiens, UniProt P04626) (assay: SPID).
B1: binds.
B2: binds.
For B3, the Kd was less than 1 nM and the “fold enhancement in affinity compared to the original Trastuzumab” value was 6 fold.
Binder B4 has a Kd of 2.6 nM.
With B5 the Kd was less than 1 nM and the “fold enhancement in affinity compared to the original Trastuzumab” value was 6 fold.
B6: binds.
B7: binds.
